Results on one protein are retold here after PMC11561172 (Nature Communications, 2024).

This series concerns the molecule itself. Nature of the series: cryo-EM structure.

B1: RNA polymerase α subunit (natural protein, Spinacia oleracea (spinach), UniProt P06505 1-335, looked up)
chain: MVREKIRVSTQTLQWKCVESRTDSKCLHYGRFILSPLMKGQADTIGIAMRRALLGEIEGTCITRAKSEKIPHEYSTILGIQESVHEILMNLKEIVLRSNLYGTCEASICVRGPRGVTAQDIILPPYVEIVDNTQHIASLTEPIDLCIGLQLERNRGYHIKAPNNFQDGSFPIDALFMPVRNVNHSIHSYGNGNEKQEILFLEIWTNGSLTPKEALYEASRNLIDLLIPFLHAEENVNLEDNQHKVSLPLFTFHNRLAEIRKNKKKIALKFIFIDQLELPPRIYNCLKKSNIHTLLDLLNNSQEDLIKMKHFRIEDVKQIFGTLEKHFVIDLKNKR
For B1, the binding result is “binds”.
